According to patent publication US20250277199, “NOVEL CRISPR-CAS NUCLEASES FROM METAGENOMES” (Brain Biotech AG, published 2025):

Molecular target: T1, BMC13 (uncultured bacterium (metagenome))
T1 chain: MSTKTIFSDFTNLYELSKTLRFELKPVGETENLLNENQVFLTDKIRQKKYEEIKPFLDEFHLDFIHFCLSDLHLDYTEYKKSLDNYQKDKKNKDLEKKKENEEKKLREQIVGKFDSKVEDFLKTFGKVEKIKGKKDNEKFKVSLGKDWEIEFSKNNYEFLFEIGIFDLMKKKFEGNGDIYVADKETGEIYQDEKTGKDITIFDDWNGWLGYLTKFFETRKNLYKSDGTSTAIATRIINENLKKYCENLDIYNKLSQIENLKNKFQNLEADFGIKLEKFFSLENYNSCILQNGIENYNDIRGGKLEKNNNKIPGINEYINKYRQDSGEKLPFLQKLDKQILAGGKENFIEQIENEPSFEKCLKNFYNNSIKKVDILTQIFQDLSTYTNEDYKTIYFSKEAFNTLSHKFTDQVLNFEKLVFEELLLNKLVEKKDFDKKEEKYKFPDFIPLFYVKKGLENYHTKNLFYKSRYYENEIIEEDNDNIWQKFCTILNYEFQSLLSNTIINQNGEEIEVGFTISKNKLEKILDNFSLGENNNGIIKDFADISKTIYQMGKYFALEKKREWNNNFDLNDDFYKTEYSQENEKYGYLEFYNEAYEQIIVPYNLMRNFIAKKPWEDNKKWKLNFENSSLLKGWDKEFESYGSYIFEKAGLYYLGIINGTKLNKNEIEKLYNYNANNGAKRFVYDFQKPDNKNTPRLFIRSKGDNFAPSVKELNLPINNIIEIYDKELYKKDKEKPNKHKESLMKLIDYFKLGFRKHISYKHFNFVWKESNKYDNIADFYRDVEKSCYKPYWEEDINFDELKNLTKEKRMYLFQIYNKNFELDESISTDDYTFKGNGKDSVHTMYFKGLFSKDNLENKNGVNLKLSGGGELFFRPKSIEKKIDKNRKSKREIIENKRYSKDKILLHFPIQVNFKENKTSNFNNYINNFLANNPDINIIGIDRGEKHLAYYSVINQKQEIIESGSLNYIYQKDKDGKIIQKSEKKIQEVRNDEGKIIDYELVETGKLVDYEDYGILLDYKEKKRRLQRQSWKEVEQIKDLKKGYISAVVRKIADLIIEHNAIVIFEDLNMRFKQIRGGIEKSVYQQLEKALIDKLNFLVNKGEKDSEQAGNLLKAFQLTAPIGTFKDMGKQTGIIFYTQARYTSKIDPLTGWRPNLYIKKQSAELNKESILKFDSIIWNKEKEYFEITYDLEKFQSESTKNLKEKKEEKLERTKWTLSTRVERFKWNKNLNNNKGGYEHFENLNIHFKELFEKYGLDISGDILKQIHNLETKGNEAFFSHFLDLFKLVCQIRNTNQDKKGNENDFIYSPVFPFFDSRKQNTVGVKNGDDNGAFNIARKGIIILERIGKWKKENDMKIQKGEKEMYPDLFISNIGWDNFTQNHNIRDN
Assay: cell_activity; PAM not stated; E. coli depletion, 30 C
Method in brief: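 E. coli carrying arabinose-induced (0.2%) BMC nuclease, grown at 30° C., made electrocompetent and electroporated with 50-100 ng plasmid carrying gRNA against malQ. Transformants plated on selective M9-glucose agar with kanamycin/ampicillin (± nourseothricin), and growth scored after 48 h at 30° C.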

B1: malQ gRNA (BMC stem-loop + 24 nt spacer) ; malQ protospacer (ssRNA ; dsDNA)
RNA: GAUUUCUACUAUUGUAGAUGUGGCGGUACGUUGAUGCAUCGCG
DNA 1: GTGGCGGTACGTTGATGCATCGCG
DNA 2: CGCGATGCATCAACGTACCGCCAC
B1 was tested, and the activity was > 99.9 % colony reduction.
